The source of these data is patent publication US20240092934A1 (FAMEWAVE, published 2024).

Residue numbers refer to the chain shown, from its start. In names and notes the source's numbering stands.

Sequences and labels used below:
T1: recombinant human CEACAM-1 (R&D Systems cat. no. 2244-CM-050) (human, UniProt P13688 35-428)
T1 construct: Coated on the ELISA plate at 0.5 ug/ml
T1 sequence (looked up): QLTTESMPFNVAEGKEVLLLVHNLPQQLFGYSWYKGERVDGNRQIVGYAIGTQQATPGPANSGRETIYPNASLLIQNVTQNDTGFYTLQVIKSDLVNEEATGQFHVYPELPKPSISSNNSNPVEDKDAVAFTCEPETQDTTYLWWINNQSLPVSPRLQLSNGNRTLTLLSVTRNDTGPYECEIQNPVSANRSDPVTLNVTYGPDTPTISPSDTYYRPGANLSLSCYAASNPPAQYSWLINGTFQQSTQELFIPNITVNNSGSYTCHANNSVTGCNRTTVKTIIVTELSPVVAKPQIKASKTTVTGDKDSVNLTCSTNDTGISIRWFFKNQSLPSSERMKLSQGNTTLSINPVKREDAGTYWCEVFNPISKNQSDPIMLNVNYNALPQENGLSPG

B1: humanized anti-CEACAM-1 variant VH3/VK2, IgG1 (antibody, V domains shown)
VH: QVQLVQSGAEVKKPGASVKVSCKASGYAFTNNLIEWVRQAPGQGLEWIGVINPGSGDTNYNEKFKGRATLTADKSINTAYMELSRLRSDDTAVYYCARGDYYGGFAVDYWGQGTTVTVSS
VL: DIQMTQSPSSLSASVGDRVTITCRTSQDIGNYLNWYQQKPGKAVKLLIYYTSRLHSGVPSRFSGSGSGTDYTLTISSLQPEDIATYFCQQGKSLPRTFGGGTKVEIK
notes: Tested as human IgG1 / kappa antibody; only the variable regions are tied to this variant
B2: humanized anti-CEACAM-1 variant VH3/VK2, IgG4 (S241P) (antibody, V domains shown)
VH: B1 VH
VL: B1 VL
notes: Tested as human IgG4 (S241P) / kappa antibody; only the variable regions are tied to this variant
B3: humanized anti-CEACAM-1 variant VH2/VK1, IgG1 (antibody, V domains shown)
VH: B1 VH with R38K, Y95F
VL: B1 VL with P80Q
notes: as for B1
B4: humanized anti-CEACAM-1 variant VH1/VK3, IgG4 (S241P) (antibody, V domains shown)
VH: B1 VH with V11L, R38K, R85S, R87T, T91S, Y95F, T115S
VL: B1 VL with L73F
notes: as for B2
B5: humanized anti-CEACAM-1 variant VH1/VK1, IgG1 (antibody, V domains shown)
VH: B1 VH with V11L, R38K, R85S, R87T, T91S, Y95F, T115S
VL: B1 VL with P80Q
notes: as for B1
B6: humanized anti-CEACAM-1 variant VH1/VK1, IgG4 (S241P) (antibody, V domains shown)
VH: B1 VH with V11L, R38K, R85S, R87T, T91S, Y95F, T115S
VL: B1 VL with P80Q
notes: as for B2
B7: humanized anti-CEACAM-1 variant VH3/VK3, IgG4 (S241P) (antibody, V domains shown)
VH: B1 VH
VL: B1 VL with L73F
notes: as for B2
B8: humanized anti-CEACAM-1 variant VH4/VK1, IgG1 (antibody, V domains shown)
VH: B1 VH with N77S
VL: B1 VL with P80Q
notes: as for B1
B9: humanized anti-CEACAM-1 variant VH3/VK3, IgG1 (antibody, V domains shown)
VH: B1 VH
VL: B1 VL with L73F
notes: as for B1
B10: humanized anti-CEACAM-1 variant VH2/VK3, IgG4 (S241P) (antibody, V domains shown)
VH: B1 VH with R38K, Y95F
VL: B1 VL with L73F
notes: as for B2
B11: humanized anti-CEACAM-1 variant VH3/VK1, IgG1 (antibody, V domains shown)
VH: B1 VH
VL: B1 VL with P80Q
notes: as for B1
B12: humanized anti-CEACAM-1 variant VH4/VK2, IgG1 (antibody, V domains shown)
VH: B1 VH with N77S
VL: B1 VL
notes: as for B1
B13: humanized anti-CEACAM-1 variant VH5/VK1, IgG1 (antibody, V domains shown)
VH: B1 VH with A68V, L70M, N77S
VL: B1 VL with P80Q
notes: as for B1
B14: humanized anti-CEACAM-1 variant VH5/VK1, IgG4 (S241P) (antibody, V domains shown)
VH: B1 VH with A68V, L70M, N77S
VL: B1 VL with P80Q
notes: as for B2
B15: humanized anti-CEACAM-1 variant VH5/VK2, IgG4 (S241P) (antibody, V domains shown)
VH: B1 VH with A68V, L70M, N77S
VL: B1 VL
notes: as for B2
B16: humanized anti-CEACAM-1 variant VH4/VK3, IgG1 (antibody, V domains shown)
VH: B1 VH with N77S
VL: B1 VL with L73F
notes: as for B1
B17: humanized anti-CEACAM-1 variant VH1/VK2, IgG1 (antibody, V domains shown)
VH: B1 VH with V11L, R38K, R85S, R87T, T91S, Y95F, T115S
VL: B1 VL
notes: as for B1
B18: humanized anti-CEACAM-1 variant VH4/VK1, IgG4 (S241P) (antibody, V domains shown)
VH: B1 VH with N77S
VL: B1 VL with P80Q
notes: as for B2
B19: humanized anti-CEACAM-1 variant VH4/VK2, IgG4 (S241P) (antibody, V domains shown)
VH: B1 VH with N77S
VL: B1 VL
notes: as for B2
B20: humanized anti-CEACAM-1 variant VH5/VK2, IgG1 (antibody, V domains shown)
VH: B1 VH with A68V, L70M, N77S
VL: B1 VL
notes: as for B1
B21: humanized anti-CEACAM-1 variant VH2/VK2, IgG4 (S241P) (antibody, V domains shown)
VH: B1 VH with R38K, Y95F
VL: B1 VL
notes: as for B2
B22: humanized anti-CEACAM-1 variant VH2/VK3, IgG1 (antibody, V domains shown)
VH: B1 VH with R38K, Y95F
VL: B1 VL with L73F
notes: as for B1
B23: humanized anti-CEACAM-1 variant VH5/VK3, IgG4 (S241P) (antibody, V domains shown)
VH: B1 VH with A68V, L70M, N77S
VL: B1 VL with L73F
notes: as for B2
B24: humanized anti-CEACAM-1 variant VH1/VK2, IgG4 (S241P) (antibody, V domains shown)
VH: B1 VH with V11L, R38K, R85S, R87T, T91S, Y95F, T115S
VL: B1 VL
notes: as for B2
B25: humanized anti-CEACAM-1 variant VH1/VK3, IgG1 (antibody, V domains shown)
VH: B1 VH with V11L, R38K, R85S, R87T, T91S, Y95F, T115S
VL: B1 VL with L73F
notes: as for B1
B26: humanized anti-CEACAM-1 variant VH4/VK3, IgG4 (S241P) (antibody, V domains shown)
VH: B1 VH with N77S
VL: B1 VL with L73F
notes: as for B2
B27: humanized anti-CEACAM-1 variant VH3/VK1, IgG4 (S241P) (antibody, V domains shown)
VH: B1 VH
VL: B1 VL with P80Q
notes: as for B2
B28: humanized anti-CEACAM-1 variant VH2/VK1, IgG4 (S241P) (antibody, V domains shown)
VH: B1 VH with R38K, Y95F
VL: B1 VL with P80Q
notes: as for B2
B29: humanized anti-CEACAM-1 variant VH5/VK3, IgG1 (antibody, V domains shown)
VH: B1 VH with A68V, L70M, N77S
VL: B1 VL with L73F
notes: as for B1
B30: humanized anti-CEACAM-1 variant VH2/VK2, IgG1 (antibody, V domains shown)
VH: B1 VH with R38K, Y95F
VL: B1 VL
notes: as for B1

For the assay, the target named is T1, recombinant human CEACAM-1 (R&D Systems …). The experiment in a line: competition ELISA on coated recombinant human CEACAM-1; competitor biotinylated chimeric CM-10 IgG1. The text has this:
The binding of the biotinylated antibody was detected with streptavidin-HRP (Sigma cat. no. S5512) and TMB substrate (Invitrogen cat. no. 00-2023). The reaction was stopped with 3M HC1, absorbance read at 450 nm on a Dynex Technologies MRX TC II plate reader and the binding curves plotted.
(In general: An ELISA detects its analyte on a solid surface through an enzyme-linked reagent.)
On to B1, for which the IC50 worked out at 0.85 mg/L and the “IC50 normalized to CM-10” value was 1.36 ratio to IC50 of chimeric CM-10.
As for B2, the IC50 stood at 0.77 mg/L and the “IC50 normalized to CM-10” value is 1.26 ratio to IC50 of chimeric CM-10.
On to B3, for which the IC50 was found to be 0.68 mg/L and the “IC50 normalized to CM-10” value was 1.29 ratio to IC50 of chimeric CM-10.
For B4, in that order: 0.54 mg/L and 1.05 ratio to IC50 of chimeric CM-10.
Take B5: the IC50 is 0.78 mg/L and the “IC50 normalized to CM-10” value is 1.46 ratio to IC50 of chimeric CM-10.
Consider B6, for which the IC50 came out at 0.78 mg/L and the “IC50 normalized to CM-10” value was 1.52 ratio to IC50 of chimeric CM-10.
In the case of B7, the IC50 was 0.73 mg/L and the “IC50 normalized to CM-10” value is 1.23 ratio to IC50 of chimeric CM-10.
B8: the IC50 was 0.73 mg/L and the “IC50 normalized to CM-10” value is 1.15 ratio to IC50 of chimeric CM-10.
Take B9: the IC50 came to 0.86 mg/L and the “IC50 normalized to CM-10” value was 1.37 ratio to IC50 of chimeric CM-10.
On to B10, for which the IC50 turned out to be 0.71 mg/L and the “IC50 normalized to CM-10” value was 1.16 ratio to IC50 of chimeric CM-10.
Turning to B11, the IC50 was 0.69 mg/L and the “IC50 normalized to CM-10” value is 1.1 ratio to IC50 of chimeric CM-10.
Regarding B12, the IC50 came to 0.78 mg/L and the “IC50 normalized to CM-10” value was 1.24 ratio to IC50 of chimeric CM-10.
In the case of B13, the IC50 was 0.77 mg/L and the “IC50 normalized to CM-10” value is 1.17 ratio to IC50 of chimeric CM-10.
As to B14, the IC50 turned out to be 0.74 mg/L and the “IC50 normalized to CM-10” value was 1.23 ratio to IC50 of chimeric CM-10.
Regarding B15, the IC50 is 0.7 mg/L and the “IC50 normalized to CM-10” value is 1.16 ratio to IC50 of chimeric CM-10.
With B16, the half-maximal inhibitory concentration (IC50) worked out at 0.99 mg/L and the “IC50 normalized to CM-10” value is 1.56 ratio to IC50 of chimeric CM-10.
For B17, in that order: 0.7 mg/L and 1.32 ratio to IC50 of chimeric CM-10.
In the case of B18, the IC50 came to 0.69 mg/L and the “IC50 normalized to CM-10” value is 1.15 ratio to IC50 of chimeric CM-10.
B19: the IC50 was determined as 0.69 mg/L and the “IC50 normalized to CM-10” value is 1.17 ratio to IC50 of chimeric CM-10.
B20: the IC50 worked out at 0.72 mg/L and the “IC50 normalized to CM-10” value is 1.09 ratio to IC50 of chimeric CM-10.
B21: the half-maximal inhibitory concentration (IC50) stood at 0.76 mg/L and the “IC50 normalized to CM-10” value was 1.26 ratio to IC50 of chimeric CM-10.
On to B22, for which the IC50 amounted to 0.76 mg/L and the “IC50 normalized to CM-10” value was 1.21 ratio to IC50 of chimeric CM-10.
With B23, the IC50 came out at 0.7 mg/L and the “IC50 normalized to CM-10” value was 1.17 ratio to IC50 of chimeric CM-10.
For B24, the IC50 is 0.7 mg/L and the “IC50 normalized to CM-10” value is 1.36 ratio to IC50 of chimeric CM-10.
Take B25: the concentration for half-maximal inhibition (IC50) was 0.77 mg/L and the “IC50 normalized to CM-10” value was 1.44 ratio to IC50 of chimeric CM-10.
Regarding B26, the IC50 amounted to 0.63 mg/L and the “IC50 normalized to CM-10” value is 1.06 ratio to IC50 of chimeric CM-10.
B27: the IC50 worked out at 0.71 mg/L and the “IC50 normalized to CM-10” value is 1.16 ratio to IC50 of chimeric CM-10.
For the molecule B28, the IC50 was 0.43 mg/L and the “IC50 normalized to CM-10” value is 0.84 ratio to IC50 of chimeric CM-10.
As for B29, the IC50 stood at 0.74 mg/L and the “IC50 normalized to CM-10” value is 1.12 ratio to IC50 of chimeric CM-10.
In the case of B30, the IC50 is 0.78 mg/L and the “IC50 normalized to CM-10” value was 1.24 ratio to IC50 of chimeric CM-10.

As a reminder, the IC50 is the concentration that gives 50% inhibition.
